The source of these data is patent publication US20250011363A1, “OPTIMIZED SHORTENED PEPTIDE THAT BINDS TO ACETYLCHOLINE RECEPTOR, AND USE THEREOF” (SKINMED CO., LTD., priority 2021, published 2025).

The assay deals with acetylcholine receptor (Homo sapiens, UniProt P02708). Kind of assay: SPR binding affinity (RU) of optimized 5mer/6mer/7mer peptides, Examples 6-7. To be noted: SPR, peptides tested at 10 μM. The method, then: Based on the frequencies of occurrence of the top 7 amino acids from Table 7 in Example 5, 600 peptides comprising these amino acids (top combinations) and those comprising the 13 less frequently occurring amino acids (bottom combinations) were synthesized for each series of 5mer, 6mer-1, and 6mer-2. The binding affinity of each sequence for the acetylcholine receptor was measured using Surface Plasmon Resonance (SPR) analysis method. The peptides were tested at a concentration of 10 μM. Additionally, the average binding affinities of the top and bottom combinations in each series are depicted in FIGS. 5-7.
Sequence of acetylcholine receptor (P02708 21-457): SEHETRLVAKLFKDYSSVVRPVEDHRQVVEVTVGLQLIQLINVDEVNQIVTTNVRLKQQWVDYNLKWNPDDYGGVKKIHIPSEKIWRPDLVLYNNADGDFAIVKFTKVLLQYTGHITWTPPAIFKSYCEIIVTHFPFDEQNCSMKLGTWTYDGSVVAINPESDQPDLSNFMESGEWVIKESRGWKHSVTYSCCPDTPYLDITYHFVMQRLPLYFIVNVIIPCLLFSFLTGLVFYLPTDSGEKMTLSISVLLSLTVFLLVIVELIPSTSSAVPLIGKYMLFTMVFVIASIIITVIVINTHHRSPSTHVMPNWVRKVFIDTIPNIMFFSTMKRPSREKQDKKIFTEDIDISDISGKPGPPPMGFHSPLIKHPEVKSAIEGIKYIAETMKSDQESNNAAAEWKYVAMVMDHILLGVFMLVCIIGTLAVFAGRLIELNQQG
Representative peptides identified in Example 6, two in each library, including 5mers (73, 311) and 6mers-1 (43, 210) and 6mers-2 (136, 233), were compared with the pre-optimized 6mer, 5mer-ND, and Synake.
(Surface plasmon resonance follows binding to a sensor surface in real time, without labels.)

The mark [1] stands for this setting: 5mer Top sequence (top combinations).

5mer-141 (RWQQR): the Binding affinity (5mer Top sequence) is recorded as 50 Ru.
Same read-out and setting: under 5mer-142 (RQYSR) stands 52 Ru; under 5mer-143 (KGQQR), 64 Ru.
In the case of 5mer-144 (KRFSK), the Binding affinity (5mer Top sequence) was found to be 58 Ru.
Consider 5mer-145 (RSFSK), for which the Binding affinity (5mer Top sequence) stood at 62 Ru.
As to 5mer-146 (RWFTK), the Binding affinity (5mer Top sequence) is reported as 52 Ru.
With 5mer-147 (RRYQK), the Binding affinity (5mer Top sequence) was 66 Ru.
Still for that read-out and setting: the same measure for 5mer-148 (RSQTK): 50 Ru; for 5mer-149 (KQFLR): 80 Ru; for 5mer-150 (RVRTR): 64 Ru.
As for 5mer-151 (RVFTK), the Binding affinity (5mer Top sequence) came out at 66 Ru.
On the same count and under the same terms, the same measure for 5mer-152 (RRRRR): 56 Ru; for 5mer-153 (RSIQK): 72 Ru; for 5mer-154 (RSITR): 54 Ru.
Same read-out and setting: the same measure for 5mer-155 (KRYLR): 57 Ru; for 5mer-156 (KGLRK): 85 Ru; for 5mer-157 (KGRCR): 78 Ru.
With 5mer-158 (RWQTK), where the note is “5mer Top sequence”, the Binding affinity came out at 65 Ru.
For 5mer-159 (RGQRR), the Binding affinity (5mer Top sequence) came to 73 Ru.
5mer-160 (RSIRR): the Binding affinity (5mer Top sequence) is listed as 53 Ru.
Still for that read-out and setting: under 5mer-161 (KWVTK) stands 52 Ru; under 5mer-162 (RGYQR), 51 Ru.
5mer-163 (KSLCK): the Binding affinity (5mer Top sequence) is reported as 61 Ru.
Consider 5mer-164 (KSICK), for which the Binding affinity (5mer Top sequence) stood at 54 Ru.
Same read-out and setting: the same measure for 5mer-165 (KWRSK): 56 Ru; for 5mer-166 (KSFQR): 55 Ru; for 5mer-167 (KQFRK): 64 Ru.
The same measure, in the same setting: under 5mer-168 (KLFSK) stands 84 Ru; under 5mer-169 (RWYRK), 61 Ru; under 5mer-170 (RLICK), 62 Ru.
For the substance 5mer-171 (KSIQR), the Binding affinity (5mer Top sequence) is 55 Ru.
Still for that read-out and setting: the same measure for 5mer-172 (RSRRR): 82 Ru; for 5mer-173 (RSVSR): 59 Ru; for 5mer-174 (KGRQR): 59 Ru.
As for 5mer-175 (RWQLK), where the note is “5mer Top sequence”, the Binding affinity was 63 Ru.
The same measure, in the same setting: the same measure for 5mer-176 (RVLYK): 52 Ru.
Still for that read-out and setting: the same measure for 5mer-177 (RWVRK): 77 Ru.
Still for that read-out and setting: the same measure for 5mer-178 (RRVLK): 87 Ru.
With 5mer-179 (RLYTK), the Binding affinity (5mer Top sequence) amounted to 55 Ru.
Same read-out and setting: the same measure for 5mer-180 (KQRYR): 74 Ru; for 5mer-181 (RSLLK): 72 Ru.
In the case of 5mer-182 (RVLSK), the Binding affinity (5mer Top sequence) is listed as 70 Ru.
Still for that read-out and setting: the same measure for 5mer-183 (KRVYR): 64 Ru.
Turning to 5mer-184 (KLQCR), the Binding affinity (5mer Top sequence) is 68 Ru.
5mer-185 (RRYRR): where the note is “5mer Top sequence”, the Binding affinity is 86 Ru.
The same measure, in the same setting: under 5mer-186 (KRLQR) stands 64 Ru.
Same read-out and setting: the same measure for 5mer-187 (RWVCR): 74 Ru; for 5mer-188 (KWFSK): 82 Ru; for 5mer-189 (RLLQK): 65 Ru.
The same measure, in the same setting: under 5mer-190 (RWRSR) stands 84 Ru.
5mer-191 (RVRCR): the Binding affinity (5mer Top sequence) is on record as 75 Ru.
Same read-out and setting: the same measure for 5mer-192 (KSFRK): 75 Ru.
Still for that read-out and setting: under 5mer-193 (RVIRK) stands 80 Ru; under 5mer-194 (KWQSK), 84 Ru; under 5mer-195 (KVVSR), 82 Ru.
On to 5mer-196 (RSYYR), for which the Binding affinity (5mer Top sequence) is given as 69 Ru.
In the case of 5mer-197 (RSRQK), the Binding affinity (5mer Top sequence) is given as 68 Ru.
The same measure, in the same setting: under 5mer-198 (KLISR) stands 74 Ru.
On to 5mer-199 (KRYQR), for which the Binding affinity (5mer Top sequence) turned out to be 84 Ru.
Still for that read-out and setting: the same measure for 5mer-200 (KRVRR): 55 Ru.
As for 5mer-201 (RWIYR), where the note is “5mer Top sequence”, the Binding affinity is listed as 62 Ru.
Same read-out and setting: the same measure for 5mer-202 (KWYRR): 65 Ru; for 5mer-203 (RQLTR): 78 Ru; for 5mer-204 (RQFQR): 84 Ru.
The same measure, in the same setting: the same measure for 5mer-205 (RWYYR): 75 Ru; for 5mer-206 (KLQLR): 57 Ru; for 5mer-207 (KQVRR): 72 Ru.
Regarding 5mer-208 (KLICR), the Binding affinity (5mer Top sequence) came out at 80 Ru.
As to 5mer-209 (RGVRR), the Binding affinity (5mer Top sequence) turned out to be 78 Ru.
The same measure, in the same setting: the same measure for 5mer-210 (KVYYR): 67 Ru.
Still for that read-out and setting: the same measure for 5mer-211 (RLYYR): 73 Ru.
For the substance 5mer-212 (KQQYK), the Binding affinity under setting [1] is 64 Ru.
Still for that read-out and setting: the same measure for 5mer-213 (RQYTK): 83 Ru.
With 5mer-214 (KQQCK), the Binding affinity under setting [1] was found to be 79 Ru.
5mer-215 (RQYRR): under setting [1], the Binding affinity is given as 79 Ru.
For the substance 5mer-216 (KWVRR), under setting [1], the Binding affinity worked out at 56 Ru.
For 5mer-217 (KLQRR), the Binding affinity under setting [1] came to 72 Ru.
As for 5mer-218 (KVQYK), under setting [1], the Binding affinity was 80 Ru.
Regarding 5mer-219 (KQYTR), the Binding affinity under setting [1] came out at 55 Ru.
Same read-out and setting: under 5mer-220 (KRILR) stands 81 Ru; under 5mer-221 (RGRTR), 58 Ru; under 5mer-222 (KWLLR), 86 Ru.
The same measure, in the same setting: under 5mer-223 (KQVRK) stands 61 Ru.
Still for that read-out and setting: the same measure for 5mer-224 (RLQRR): 67 Ru.
In the case of 5mer-225 (KRQQK), under setting [1], the Binding affinity was found to be 51 Ru.
On the same count and under the same terms, the same measure for 5mer-226 (RRYTR): 60 Ru; for 5mer-227 (RRQQR): 84 Ru; for 5mer-228 (KRFLK): 53 Ru.
On to 5mer-229 (KGLTR), for which the Binding affinity under setting [1] is 84 Ru.
For 5mer-230 (KVLCR), the Binding affinity under setting [1] came to 67 Ru.
On to 5mer-231 (KGLLK), for which the Binding affinity under setting [1] is given as 60 Ru.
On the same count and under the same terms, the same measure for 5mer-232 (KWYTR): 71 Ru; for 5mer-233 (RVYYK): 84 Ru; for 5mer-234 (RQYCR): 62 Ru.
On the same count and under the same terms, under 5mer-235 (KGYSK) stands 70 Ru; under 5mer-236 (KRRCK), 81 Ru; under 5mer-237 (RGLRK), 77 Ru.
As for 5mer-238 (KQVLK), the Binding affinity under setting [1] is 58 Ru.
On the same count and under the same terms, under 5mer-239 (KRLYR) stands 61 Ru.
Same read-out and setting: under 5mer-240 (KWRYR) stands 51 Ru; under 5mer-241 (KVRCR), 51 Ru; under 5mer-242 (RGYTK), 64 Ru.
The same measure, in the same setting: the same measure for 5mer-243 (KLLSK): 51 Ru.
For the substance 5mer-244 (KSVSK), the Binding affinity under setting [1] amounted to 78 Ru.
As to 5mer-245 (RQRSK), the Binding affinity under setting [1] was determined as 62 Ru.
Same read-out and setting: the same measure for 5mer-246 (KSFTR): 60 Ru.
Regarding 5mer-247 (RWYCR), the Binding affinity under setting [1] was 80 Ru.
On the same count and under the same terms, the same measure for 5mer-248 (RWYLK): 63 Ru; for 5mer-249 (RSYCR): 52 Ru; for 5mer-250 (RQFSR): 76 Ru.
Still for that read-out and setting: under 5mer-251 (KRISK) stands 70 Ru; under 5mer-252 (KQYRK), 53 Ru.
On the same count and under the same terms, the same measure for 5mer-253 (RSLYR): 75 Ru; for 5mer-254 (KLLRK): 87 Ru; for 5mer-255 (KQRTR): 82 Ru.
As to 5mer-256 (RGVCK), under setting [1], the Binding affinity came out at 60 Ru.
On the same count and under the same terms, under 5mer-257 (RQFTR) stands 85 Ru; under 5mer-258 (KRQYK), 84 Ru.
Still for that read-out and setting: under 5mer-259 (RLIRK) stands 71 Ru; under 5mer-260 (KVYRR), 57 Ru; under 5mer-261 (RRVLR), 59 Ru.
Turning to 5mer-262 (KSRCR), under setting [1], the Binding affinity is recorded as 59 Ru.
Same read-out and setting: under 5mer-263 (KQVTR) stands 80 Ru; under 5mer-264 (KWYRK), 50 Ru.
Turning to 5mer-265 (RWQCR), the Binding affinity under setting [1] amounted to 77 Ru.
For the substance 5mer-266 (KSYQK), the Binding affinity under setting [1] is 66 Ru.
The same measure, in the same setting: under 5mer-267 (KRLLK) stands 66 Ru; under 5mer-268 (KRYCK), 54 Ru.
Same read-out and setting: the same measure for 5mer-269 (RLFLR): 85 Ru.
Still for that read-out and setting: under 5mer-270 (RSQQR) stands 52 Ru; under 5mer-271 (RGRYR), 68 Ru.
In the case of 5mer-272 (KGYQR), under setting [1], the Binding affinity came to 83 Ru.
5mer-273 (RVQSK): under setting [1], the Binding affinity came out at 82 Ru.
On the same count and under the same terms, the same measure for 5mer-274 (RQVRK): 62 Ru; for 5mer-275 (KVYTR): 64 Ru.
On to 5mer-276 (RSLRR), for which, under setting [1], the Binding affinity was 70 Ru.
